Measured values as given in the supplement of paper PMC12042874.
± gives the uncertainty stated by the source.

Test: amyloid nucleation score (Sup35N fusion, yeast selection) (log enrichment); library NNK1; higher = more nucleation; inactive = no reads after selection
Outline: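 In psi-negative yeast, Sup35N fusions carrying peptides of 20 random codons were induced with 100 μM copper sulfate for 24 hours. The cells then grew 7 days at 30°C on medium lacking adenine and uracil, and plasmid inserts from input and output were Illumina-sequenced, excluding sequences with under 100 input reads. Nucleation score is the DiMSum log enrichment of output over input reads, centred on the mode score of non-aggregating sequences.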

Substance | amyloid nucleation score
GFRSCRCVQGRANVFPYSMS | -0.103 ± 0.25
GFTGFNRIGVLVGWKCN | 0.763 ± 0.92
GFTMSTEGVS | 0.781 ± 0.55
GFWVWSSSRRCLIVRFQVMG | -0.373 ± 0.56
GFYRGVTTIFCSVFI | 7.777 ± 0.07
GGGVMASDKPCTRVSLINKM | 0.161 ± 0.7
GGHFWWNTGQARVNWTIRLE | 0.123 ± 0.48
GGILPLTCSFVRTSIDQIGG | -0.154 ± 0.41
GGIYSLSMNIVWATGCL | -0.361 ± 0.93
GGLAGTTLKLRICF | -1.03 ± 1.9
GGLDSNRQLVKFYTSWNYNC | -0.057 ± 0.39
GGLWYTSTYSIYG | 2.42 ± 0.48
GGTNAGRCMYGGRDI | 0.754 ± 0.7
GGTWPYTAVRWVIWRLWGEG | 0.129 ± 0.64
GGYVWVTTSGPVFIQVMNMW | 8.136 ± 0.06
GHQILDSCLANCYGGCLIAC | 0.652 ± 0.61
GHRINAYVVVVHLGSSGGGW | 2.07 ± 0.29
GHVWEQGRQLGSAPKDR | 0.1 ± 0.71
GICDLLAHG | 0.322 ± 0.25
GICWLISCGRIVAGSSEQYV | 0.924 ± 0.3
GIETRMDWEV | 1.67 ± 0.52
GIKCTRFWQVPNRGDRV | -0.813 ± 0.48

Substance | amyloid nucleation score
GILFDLICIDLCFIGVLLKM | -0.406 ± 0.44
GIRCISLRKGHAGW | -1.65 ± 2.4
GIRPEN | -0.521 ± 0.49
GIRQLMAPYKPERWCWQRVG | 0.344 ± 0.51
GISFFGGLQASFLLPLASLL | 0.413 ± 1.1
GISFY | 1.28 ± 0.9
GISSCWLRRFHVAKRARPSG | -1.02 ± 2.7
GISWSRGWSAFLKCDRRTGC | 0.894 ± 0.8
GITGSWINFRNCLTR | 0.774 ± 0.6
GIVGSG | 2.29 ± 0.29
GIYCLYFDILEVFLYTTTLS | 0.27 ± 0.42
GKDLDMRRLWFGPAGIWWSK | 0.006 ± 0.59
GKLSCYPCTGCL | -0.109 ± 1.4
GKLTYLPRVKNLHLHFSFEN | -0.169 ± 0.51
GKNDLSMNIGELWASGRGVV | 2.18 ± 0.24
GKNFSTMAWP | -1.25 ± 2.7
GKPWSSCHENSLINMDHSDV | inactive
GKRGSTQDEAKR | inactive
GLAGTLDPLTASDLLSRIGV | 0.182 ± 0.62
GLDIFIWYMMVGIVYAFIYV | 2.38 ± 0.53
GLEGIRIGWSSLVSMCLWRG | -0.016 ± 0.33
GLIRSSVEVMLHGVHRWDPY | 0.037 ± 0.42

Substance | amyloid nucleation score
GLLSRNLVLRGLNSGNWPFG | inactive
GLMLDLFVSSVYSIT | 0.655 ± 0.42
GLMSLYRQSSSLNRKAGWLT | 0.46 ± 0.64
GLNDYIKVFLYFDSVNRYLD | -0.694 ± 1.1
GLPVGQGGELDY | 2.32 ± 0.14
GLREMRNISAVFCFRLYICL | 1.58 ± 0.14
GLVACQAMSNV | -0.138 ± 0.44
GLVGTRICSWIDFRSV | -0.3 ± 1.5
GLVRDTTTMNVSLSVMSSAR | 1.39 ± 0.84
GLVSSSLGGYVDADSYFECD | inactive
GLVTRMSQTHPVSYNHITIL | -0.072 ± 0.28
GLWKGLRHSSSKWERPHIRQ | 1.1 ± 0.62
GLWYHA | 0.025 ± 0.62
GMALKLFCALT | 0.078 ± 0.89
GMLGDVTVYLACRLLISRFL | inactive
GMLNIDSVPDTYGLSQPVVP | -0.498 ± 0.57
GMLRVYWSMSSVFSGMCDRC | 3.94 ± 0.1
GMRLGTRSLQHQRWCAMLYL | -1.37 ± 1.8
GMRVRNRFVVSDSSYPPASH | -0.024 ± 0.26
GMTCSQGSEWMLERGNRTEV | -0.294 ± 0.66
GMYLFECCYMGRRFSSWVGN | 0.055 ± 0.47
GMYRSVCDKVYRGCTIEVVV | 1.55 ± 0.54

Substance | amyloid nucleation score
GNAVYMNYFNVLDWNWSL | 4.966 ± 0.048
GNCSMSVGATLEGLMVRVHI | 0.027 ± 0.68
GNWYLCTGF | 1.58 ± 0.1
GPDRLMDILAMPGGYSMLSM | 1.03 ± 0.54
GPILDSNKASIPIV | -0.322 ± 0.96
GPTATVPPRHTREFILFKYS | -0.593 ± 1
GPTCDLRFAFNPHVTYGGHG | 1.29 ± 0.64
GPVVLRTGLLVRFTYHIGRE | 1.15 ± 0.24
GPYCHGWNLKNERAVSLRG | -0.647 ± 0.47
GQICAWPITMVWAAGR | -0.391 ± 1.5
GQIIMCAARLWLGKGCVS | -0.588 ± 1
GQLWGEVVIVYCKFAMEWAY | 0.898 ± 0.27
GQVHRFIWLVT | -0.11 ± 0.3
GRAEAKLY | -0.118 ± 0.31
GRCDWTVLDMVDMIGKVESQ | 0.273 ± 0.25
GRFFRRLRECNLPHSNIHAY | 0.343 ± 0.42
GRGVLDYNGTTKKARVNRLC | inactive
GRISRFLFQRDNVWPSLAKQ | 0.171 ± 0.52
GRNRRDVMSRSYSVVG | -0.72 ± 1.1
GRPICYKTHFSSLYVSEVDR | -1.19 ± 1.4
